# Assay results: article PMC8674358, “Decoding non-canonical mRNA decay by the endoplasmic-reticulum stress sensor IRE1α” (Nature Communications, 2021)
# Molecular target: the molecule itself
# Assay: cross-linking; 1 μg IRE1-KR (~0.8 μM) or various concentrations in RNA cleavage buffer (20 mM HEPES pH 7.5, 50 mM K acetate, 1 mM Mg acetate, 0.05% Triton X-100), 250 μM DSS, 1 h on ice; SDS-PAGE and IRE1α immunoblot; also with CRUK-3 (5 µM), which augmented KR-0P dimerization and oligomerization
row,Protein,stoichiometry N
1,"IRE1-KR-R887A, unphosphorylated (domain or fragment, human, UniProt O75460 547-977, looked up, IRE1α, human, kinase-endoribonuclease (KR) module, residues G547-L977, with R887A; also called unphosphorylated R887A; source: SF9 cells, purified in-house following the same procedure as IRE1α KR; not shown: His6, N-terminal, cleaved) GSSPSLEQDDGDEETSVVIVGKISFCPKDVLGHGAEGTIVYRGMFDNRDVAVKRILPECFSFADREVQLLRESDEHPNVIRYFCTEKDRQFQYIAIELCAATLQEYVEQKDFAHLGLEPITLLQQTTSGLAHLHSLNIVHRDLKPHNILISMPNAHGKIKAMISDFGLCKKLAVGRHSFSRRSGVPGTEGWIAPEMLSEDCKENPTYTVDIFSAGCVFYYVISEGSHPFGKSLQRQANILLGACSLDCLHPEKHEDVIARELIEKMIAMDPQKRPSAKHVLKHPFFWSLEKQLQFFQDVSDRIEKESLDGPIVKQLERGGRAVVKMDWRENITVPLQTDLAKFRTYKGGSVRDLLRAMRNKKHHYRELPAEVRETLGSLPDDFVCYFTSRFPHLLAHTYRAMELCSHERLFQPYYFHEPPEPQPPVTPDAL",2
2,"IRE1-KR-R887A, phosphorylated (domain or fragment, human, UniProt O75460 547-977, looked up, phosphorylated (allowed to autophosphorylate in the presence of ATP and MgCl2); sites not stated for this mutant, IRE1α, human, kinase-endoribonuclease (KR) module, residues G547-L977, with R887A; also called phosphorylated IRE1-KR-R887A; IRE1-KR-3P R887A; source: SF9 cells, purified in-house following the same procedure as IRE1α KR; autophosphorylated with 2 mM ATP and 10 mM MgCl2, then SEC; not shown: His6, N-terminal, cleaved) GSSPSLEQDDGDEETSVVIVGKISFCPKDVLGHGAEGTIVYRGMFDNRDVAVKRILPECFSFADREVQLLRESDEHPNVIRYFCTEKDRQFQYIAIELCAATLQEYVEQKDFAHLGLEPITLLQQTTSGLAHLHSLNIVHRDLKPHNILISMPNAHGKIKAMISDFGLCKKLAVGRHSFSRRSGVPGTEGWIAPEMLSEDCKENPTYTVDIFSAGCVFYYVISEGSHPFGKSLQRQANILLGACSLDCLHPEKHEDVIARELIEKMIAMDPQKRPSAKHVLKHPFFWSLEKQLQFFQDVSDRIEKESLDGPIVKQLERGGRAVVKMDWRENITVPLQTDLAKFRTYKGGSVRDLLRAMRNKKHHYRELPAEVRETLGSLPDDFVCYFTSRFPHLLAHTYRAMELCSHERLFQPYYFHEPPEPQPPVTPDAL",2
